We go through four molecules from paper PMC6816099, “The finger loop of the SRA domain in the E3 ligase UHRF1 is a regulator of ubiquitin targeting and is required for the maintenance of DNA methylation”.

What is called Kd is the concentration at which binding is half-saturated. Read a high Kd as a looser complex.

Data set [1] addresses UHRF1 SRA SUVH5 finger swap (/ A. thaliana finger loop) (UniProt Q96T88). Description: fluorescence polarization. The settings on record: 0.05% NP-40, 10 nM FAM-DNA (temperature not stated), ITC: 25 mM HEPES, 1 mM DTT, 25 C. A general note: In fluorescence polarisation assays a small probe gives low polarisation when free and higher when bound to something large.
The target of data set [2] is T1, UHRF1 SRA (WT) (UniProt Q96T88 414-616).
T1 sequence: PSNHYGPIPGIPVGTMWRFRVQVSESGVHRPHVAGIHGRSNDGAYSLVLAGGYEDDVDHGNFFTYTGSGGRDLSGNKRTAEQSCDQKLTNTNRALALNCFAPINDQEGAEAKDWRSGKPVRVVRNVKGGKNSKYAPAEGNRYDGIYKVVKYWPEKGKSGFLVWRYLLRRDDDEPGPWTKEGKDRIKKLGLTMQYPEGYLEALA
Description: ITC; 35 uM protein in cell, 430 uM DNA in syringe; n 0.5-1.0; FP: 25 mM HEPES pH 7.5, 100 mM NaCl, 0.05% NP-40, 10 nM FAM-DNA (temperature not stated); ITC: 25 mM HEPES, 100 mM NaCl, 1 mM DTT, 25 C. The settings on record: protein: recombinant; tags: N-terminal His6-MBP (retained); blunt. (ITC needs no label: the signal is the heat of the interaction.)

Sequence of UHRF1 SRA SUVH5 finger swap (/ A. thaliana finger loop) (Q96T88 whole entry): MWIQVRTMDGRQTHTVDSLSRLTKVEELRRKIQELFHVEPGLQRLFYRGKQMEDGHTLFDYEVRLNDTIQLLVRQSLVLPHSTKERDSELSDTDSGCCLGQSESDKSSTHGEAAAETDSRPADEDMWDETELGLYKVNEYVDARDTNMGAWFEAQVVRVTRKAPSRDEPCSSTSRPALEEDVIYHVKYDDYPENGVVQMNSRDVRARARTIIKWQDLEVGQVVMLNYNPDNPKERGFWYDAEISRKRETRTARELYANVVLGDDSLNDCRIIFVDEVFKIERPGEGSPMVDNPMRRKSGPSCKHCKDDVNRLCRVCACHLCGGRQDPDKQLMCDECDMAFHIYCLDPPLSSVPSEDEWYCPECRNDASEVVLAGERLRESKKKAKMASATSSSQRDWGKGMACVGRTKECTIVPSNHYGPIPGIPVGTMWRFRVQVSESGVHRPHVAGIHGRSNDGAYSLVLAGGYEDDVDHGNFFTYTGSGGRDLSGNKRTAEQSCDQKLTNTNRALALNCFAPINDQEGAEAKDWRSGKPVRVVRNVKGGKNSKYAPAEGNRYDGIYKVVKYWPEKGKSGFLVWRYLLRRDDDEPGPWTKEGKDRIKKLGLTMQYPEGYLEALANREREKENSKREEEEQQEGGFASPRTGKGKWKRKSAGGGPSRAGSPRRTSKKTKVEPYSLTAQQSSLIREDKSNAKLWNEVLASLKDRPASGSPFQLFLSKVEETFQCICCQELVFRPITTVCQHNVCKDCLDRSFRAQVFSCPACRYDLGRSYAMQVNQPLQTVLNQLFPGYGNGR

“CCATGCGCTGAC (double strand) [He5mC (FAM)]” returned a Kd in data set [1] (5mC at position 6 of strand 1, FP: 25 mM HEPES pH 7.5, 100 mM NaCl) of 200 nM.

In data set [1] (5mC at position 6 of strand 1 and position 6 of strand 2, FP: 25 mM HEPES pH 7.5, 100 mM NaCl), CCATGCGCTGAC (double strand) [Sy5mC] yielded a Kd of 200 nM.

Molecule CCATGCGCTGAC (double strand) [UnDNA] returned a Kd in data set [1] (FP: 25 mM HEPES pH 7.5, 100 mM NaCl) of 200 nM.

B1: He5mC (unlabelled, ITC) (dsDNA)
DNA 1: CCATGCGCTGAC
DNA 2: GTCAGCGCATGG
modifications: 5mC at position 6 of strand 1
For the molecule B1, in data set [2], the binding result was “binds”.
